Source: the DeepSol protein solubility set

Assay: soluble on expression in E. coli; label from the status in PepcDB or PDB records

Sequence | soluble on expression in E. coli
MGSDKIHHHHHHMVQISETSSELIQLLRIENSAPEVLQILDHADSRYIRDLKVNVSNALVTAHISEKESALLALSIAANQKNNILISGFQKLSAEKGATIEEQNEAISCASLLAGNNVFYRFRHFQQKESYNTMQAKIKMNIMMKPVLGKEFFELISLAVSAVNGCEMCVNAHEHSVREMGATEERVWDAIRLAAVITSLDKVMS | not soluble
MLKMKNNGGGCLAYISDCSVYLPVWKLKRDEISKETGMPSMGGERAVAHWDEDSITMAVEAARKFDGAFDAVIFASSSPPFRIKQCASFIASALDLPDSTFTMDITDTMRAATDALITANEFVDSGRFSRVLVVAGDKIPTKPGTLYEQLYGDAAAAVVVEKEGGAKILGYSTSTKPLPGSWMLADDDTVRDYDMRVDARYGYAASVQKAAMPLFAKLGLSPADIDRIVASAPDPKSYQGLLKAVGARPEEFYFDSVGIAGSAHPLLLLATQLEREGRILLGGYGEGADVIAVEIEQAMDSNMGRMLESRKEISYGDYLFNRGFVGVRDAPDRPSLTKFWRDEKSIIRFYGMKCKSCGTVSYPISRCCIECGAKDNYEEVRLGERGKIYTFTIDYLVMPGNYAGDGVHPHFIAVVDLDGGGRVLFELTDTLRDFSGVECDAEVERTFRLLFEKNRFRYYGWKARLPRLEHHHHHH | soluble
MGTEGGAMIRTVALVGHAGSGKTTLTEALLYKTGAKERRGRVEEGTTTTDYTPEAKLHRTTVRTGVAPLLFRGHRVFLLDAPGYGDFVGEIRGALEAADAALVAVSAEAGVQVGTERAWTVAERLGLPRMVVVTKLDKGGDYYALLEDLRSTLGPILPIDLPLYEGGKWVGLIDVFHGKAYRYENGEEREAEVPPEERERVQRFRQEVLEAIVETDEGLLEKYLEGEEVTGEALEKAFHEAVRRGLLYPVALASGEREIGVLPLLELILEALPSPTERFGDGPPLAKVFKVQVDPFMGQVAYLRLYRGRLKPGDSLQSEAGQVRLPHLYVPMGKDLLEVEEAEAGFVLGVPKAEGLHRGMVLWQGEKPESEEVPFARLPDPNVPVALHPKGRTDEARLGEALRKLLEEDPSLKLERQEETGELLLWGHGELHLATAKERLQDYGVEVEFSVPKVPYRETIKKVAEGQGKYKKQTGGHGQYGDVWLRLEPASEYGFEWRITGGVIPSKYQEAIEEGIKEAAKKGVLAGFPVMGFKAIVYNGSYHEVDSSDLAFQIAASLAFKKVMAEAHPVLLEPIYRLKVLAPQERVGDVLSDLQARRGRILGMEQEGALSVVHAEVPLAEVLEYYKALPGLTGGAGAYTLEFSHYAEVPPHLAQRIVQERAQEG | soluble
MDVGKLESFIVEKMAERKVPGISISIIKDGDVVYAKGFGYRNVEARLPSTPETIYGIGSITKSFTALAIMKLVEEGGLSLDDPVEKFVNIKLRPFGEPVTVHHLLTHSSGIPSLGYAEAFIDGMVGGDNWLPVSTPEETIAFARDMEKWAVAKPGERFFYLNTGYVLLGKIIEKVSGVSYEEYIKKKILEPLGMNRSYFFKEEVEKDKDVAMGYILDKEGRLVPQPFPYGITADGGLLSSVLDLAKYLKMYIERDESIVSKEYIEKMETSYIKVPWEIFGGEGYGYGLIIYPNFLGEKLVGHSGSVGMYTGYIGYIPEKKIGVAVLENSSGYPPSYIAMYALALLLGKNPEKELPFIYRERILKKVEGRYMGYKGTIKFEVKVDGDVVYLRALGRAFTYTIPLFPEVLEEDFIKCYTLSNGRKMYAEFYIKDNKVDLIFERYRLIKS | soluble
MSLADIIIHNGSLITFDEARPQAQALAIQGGMIAAVGSDAEILALAGPETRLIDAGGGTVLPGFIDSHVHLFGGSVELDCLSLYGVKGLDAMRAAIQPYAQANPDDALVFCVMADYDILGTGHTLTRHDLDSILADRPLAMFAPDHHTVWANTAALEATGLLQGGEVDAGSLIVLGEDGLANGELLEPGAYGPILGLTRHGGREMLGLTTGKDPEPPATPDQRARDKDVIARGLAHCAAQGITGLHLMDGNRYQLELLTELEAEGRLLCRCEVPFHMKGTDPVERMTAEAPAMRAAYRGDKVRCNHLKMFIDGVIESGTALMLRPYPGELGANDNTGDEVFTQEHFTACCVEADRLGFQIAVHAIGDAGVRRTIDAFEAARRANGTRDSRHRIEHIEVIHPDDIPRLAELDIVASLQPGHAPRGHVFPPGAVGQYLHPDQIVGAYAWQTIRETGARVVFSTDWPVIPVDVMPSLRAAIAPLDLGPDWPDQSQSLMDTLASYTRDNAWVEFNEDSKGRLKVGMAADIAVLSHDLTALAPDDITQAAAMVTIMDGAVTYQREGHHHHHH | soluble
MPKDELPNHNCIKHLRSVVQQQQSRIAELEKTRAEHKHQLAEQKRDIQLLKAYMRAIRSVNPNLQNLEETIEYNEILEWVNSLQPARVTRWGGMISTPDAVLQAVIKRSLVESGCPASIVNELIENAHERSWPQGLATLETRQMNRRYYENYVAKRIPGKQAVVVMACENQHMGDDMVQEPGLVMIFAHGVEEI | not soluble
MKLLVATTNEGKYREIKEILSEYGIEVLKPEEKLEVEETGCTFLENAYLKARAYYERYKIPALADDSGLIVEAISPYPGVYSSRFYDIDFGGREEVRTNKDEANIRKLLRLLENTENRKAKFVAFIVVYGGSWGIFAEGEVRGEITKEPRGDRGFGYDPVFVPEGYNKTMAELSPEEKNKISHRGRALRKLVHVLKNCEKAF | soluble
EDHEGRHMMAVLPANNKISLSRLNDEFNATFHLVKERMVYRLFTDCEHGAIPPIGSPYHMSTVCDERLANLEHVYLEAGDHETLIKLDRKAFKDLMNDCKYLRFSSEVLH | not soluble
MGSDKIHHHHHHMILCCGEALIDMLPRETTLGEKGFSPYAGGAVFNTGIALGRLGVASGFFTGLSDDMMGDILRDTLRASHVDFSYCATLSRPTTIAFVKLVDGHATYAFYDENTAGRMITEADLPALGEDCEALHFGAISLIPEPCGSTYEALLNREHKTRVISLDPNIRPGFIKDKAAHMARIRRMAALSDIVKFSDEDLAWFGLDGDEDTLARHWLHHGAKLVVVTRGADGAVGYTADHKVEVPSEKVTVVDTVGAGDTFDAGVLASLKMQNLLTKQQVAKLTEEQIAKALALGSKAAAVTVSRAGANPPFAHEIGL | not soluble
MSLYIQNLELTSYRNYDHAELQFENKVNVIIGENAQGKTNLMEAIYVLSMAKSHRTSNDKELIRWDKDYAKIEGRVMKQNGAIPMQLVISKKGKKGKVNHIEQQKLSQYVGALNTIMFAPEDLNLVKGSPQVRRRFLDMEIGQVSPVYLHDLSLYQKILSQRNHFLKQLQTRKQTDRTMLDVLTDQLVEVAAKVVVKRLQFTAQLEKWAQPIHAGISRGLEELTLKYHTALDVSDPLDLSKIGDSYQEAFSKLREKEIERGVTLSGPHRDDVLFYVNGRDVQTYGSQGQQRTTALSLKLAEIDLIHEEIGEYPILLLDDVLSELDDYRQSHLLHTIQGRVQTFVTTTSVDGIDHETLRQAGMFRVQNGALVKEGGSHHHHHH | soluble
MEANMKKVIGAATATVFGLGAFTTTATAETIVTADVLNVREKPTTESKVVEKVKNGQELKVINTEDGWSKIELNGKEVFVSSEFTKDVYHVTANLLNVRTEANTDSEILGRLKKDDVIESTHQVKDGWLQFEYKGKTAYANVSFLSSTAPTEKKTEEKTKQVAKVQKSVKEKKEVKTQKVAKAKETTKAQEIVKPKEEAKVVKVKEEEKAQEIVKPKEEAKIKEEVKVKEEVKVKEEEKAQEIAKAKEEAKIKEEVKVKEEEKAQEIVKAKEEVKAKEEEKAQEIVKAKEEVKVKEEVKAKEIAKAKEEEKAREIAKAKEEEKAKEIAKAKEEEKAREIAKAKEEEKAREIAKAKEEEKAREIAKAKEEEKAREIAKAKEEERAKEASKNNIQSAKRELTVVATAYTADPSENGTYGGRVLTAMGHDLTANPNMRIIAVDPKVIPLGSKVWVEGYGEAIAGDTGSAIKGNRIDVLMGSKSKAMNWGRQTVKVKILLEHHHHHH | not soluble
MGSDKIHHHHHHMSFRSGVATFAGKSSYWFLHTFLHGGSSLPGKITLKLDPNILRTLGAKYDVIVITGTNGKTLTTALTVSVLHEKYPAILTNPTGSNMEQGIVTTFLNAKNPKTGRPLAVLEVDEANVIKVTHYIEPKAFVFTNIFRDQMDRYGEIYTTYQKILDGVALAPKATIIANGDSPIFNSKELPNPIQYYGFDNEPDTDMKAKPNTDGVLCPVCQHILHYHSLTYSNQGKYFCPNCGFARPELTYRLTALGEQTPTSSHFDVDGHPFTIQVGGTYNIYNALAAYAVGRFMGVAPEQIAHAFTANERVFGRQEVINVGDKRVTIILVKNPVGLDQVLHMIGTDKEQFSFVALLNANYADGIDTSWIWDGDFEQLTALDIPTFITGGERYKDITFRLKVAGVPDDQHIVEPDLEKVVDRITDLPTERVYVLATYTAMLQLRKILATKGYIKEGFGA | not soluble
MLFELLYTSIAPAGLSDTELLSILEKARAKNQALDITGMLVYHNREIMQILEGEELKVRGLFQTIFQDERHTSVEVFYQGNIDHRAFSEWSMAFKLLDENTVKKMLIGYENFNPAKSPISMIASSPNRGKKTFLKLRDSL | soluble
MGSDKIHHHHHHMEGYLNSRLVRNAARVALVVAIPATLAGCGINTIPTQDEATKTAWAEVQNQYQRRADLIPNLVATVKGYAAQEKDVLTAVTEARASATQVKVDASTITDPAQFQKFAAAQDQLSGVLGRLMVIQEQYPDLKSNQNFLALQSQLEGTENRITIARRDYNETAQKYNTTLRTFPSLLWAKTLYSDQKPAQLFQASAAAQSAPTVDFSSPPTATPPKVQ | not soluble
MKNEVKFMSEVIKVVDVKIFPHRYLKAETTEKVLNEIYDLDGIVRVIVHGQPLPKTVPFGPARGLPVNHQDRKVIKVKGEEMELRVKVGEIIITVEGEKLEKIMDGIEEICKRNFPFGYDIYVGAFTKIKPTVTDYMKYGDISSIDPRLIGMVDASARLKDSVKMIKLEHHHHHH | soluble
MAVAGFSPIKLIWKNSRHDLVLAGQAGLSYKNNNYLYMDVDNKHAMARTYANGKFSLGARMAYEYRISNTLGAGATATYEFGGEVFAALATFNVHF | not soluble
MDPKFLVVEIDSKERALQLVQVMLENGFARFMLLDDLSRHPTLDRIQREEPRISRDELRETASSPVTFETRHSPYPVHEQKVLFPSFSQVSNSMVTSTGIRQEASSVGVGPIEDDDIVEEEEEEDIRLTSKPCVKRRYDHHAEEQEYRDQLMSLLSGEPEIVPIGVNSNDEPSGSNSDSAAKKAKSVGDYHECQLCGVRVKTPRSGRWNLQMHVIALHCVGRQYKCKQCDYLDYRKSTMRKHTVSQHGSDIPPHNITDNIMKAEWHAAMIKCFPEFAHRTGFLN | not soluble
MHTIDVIDSHTAGEPTRVVLAGFPDLGDGDLAQCRERFRSDFDHWRSAIACEPRGSDTMVGALLLPPRDPSACTGVIFFNNVGYLGMCGHGTIGVVRTLAELGRIAPGQHRIETPVGTVGVALADDGTVSIDNVESYRHAAGVEVDVPGHGRVRGDVAWGGNWFFITEQAPCALGLAQQRELTAYTEAIRLALEAAGITGEAGGEIDHIEISGVAPDGSGAARNFVLCPGLAYDRSPCGTGTSAKLACLAADGKLAEGERWLQQGILGSAFEGSYRHSGRGIAPRISGHAFITARSQLLIDPADPFAWGIVALEHHHHHH | not soluble
MSDNNQALKDAGLKVTLPRLKILEVLQQPECQHISAEELYKKLIDLGEEIGLATVYRVLNQFDDAGIVTRHHFEGGKSVFELSTQHHHDHLVCLDCGEVIEFSDDVIEQRQKEIAAKYNVQLTNHSLYLYGKCGSDGSCKDNPNAHKPKK | soluble
MSLNRSSFDLLSTVEYGGCSAKLDPAKLSELLHDIPLPVDSRIMVDVSTHDDAGVYRLNDDTALIVTTDFFPPVCSDPYTFGRIAAANALSDVYAMGGRPLLVLNLTMFPSEGIPVEVLADILRGGQQTIDESGAFTMGGHTIDDPIPKYGLAVTGIVHPEHLVTNAGVRAGQCLVLTKPLGIGVAMAAHRLGLIGSEVYEAAIGQMCLLNRAGAELMQKYGIRGATDITGFGLLGHAKELAEASDVCLHIDSRSVPVLPECLSLLRDGCIPGATFRNLRFVGDMLRADCPTEYKMLLADAQTSGGLLMAVDADRAEDLVADLHRTGLHPFAAIIGYATDAEDAAKLIVTEGHHHHHH | soluble
